This is an account of results in article PMC10065947.

In experiment [1] the target is SH3-588 (UniProt P06241).
Experiment [2] deals with SH3-588 (UniProt P06241). Nature of the experiment: fluorescence polarisation.
In experiment [3] the target is catechol O-methyltransferase (COMT), wild type (UniProt P22734).
Experiment [4] deals with naïve fusion of WT Fyn-SH3 and WT COMT (UniProt P06241).
Experiment [5] has as its target naïve fusion 2 (UniProt P06241).
Experiment [6] addresses SH3-003 (UniProt P06241).

Chain of catechol O-methyltransferase (COMT), wild type (P22734 44-264): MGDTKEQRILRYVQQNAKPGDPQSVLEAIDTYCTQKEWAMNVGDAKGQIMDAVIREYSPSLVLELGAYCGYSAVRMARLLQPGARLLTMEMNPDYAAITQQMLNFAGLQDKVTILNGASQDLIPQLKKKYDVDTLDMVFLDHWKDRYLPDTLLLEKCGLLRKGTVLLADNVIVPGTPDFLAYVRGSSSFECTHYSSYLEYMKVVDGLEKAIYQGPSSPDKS

B1: peptide 3 (peptide)
peptide: YDLFNKGSGGAPPLPPRNRPRRS
HELM: PEPTIDE1{[N[C@@H](Cc1ccc(O)c(O)c1)C(=O)[*:2]].D.L.F.N.K.G.S.G.G.A.P.P.L.P.P.R.N.R.P.R.R.S.[am]}$$$$V2.0; N-terminus assumed
SMILES: CC(C)C[C@H](NC(=O)[C@H](CC(=O)O)NC(=O)[C@@H](N)Cc1ccc(O)c(O)c1)C(=O)N[C@@H](Cc1ccccc1)C(=O)N[C@@H](CC(N)=O)C(=O)N[C@@H](CCCCN)C(=O)NCC(=O)N[C@@H](CO)C(=O)NCC(=O)NCC(=O)N[C@@H](C)C(=O)N1CCC[C@H]1C(=O)N1CCC[C@H]1C(=O)N[C@@H](CC(C)C)C(=O)N1CCC[C@H]1C(=O)N1CCC[C@H]1C(=O)N[C@@H](CCCNC(=N)N)C(=O)N[C@@H](CC(N)=O)C(=O)N[C@@H](CCCNC(=N)N)C(=O)N1CCC[C@H]1C(=O)N[C@@H](CCCNC(=N)N)C(=O)N[C@@H](CCCNC(=N)N)C(=O)N[C@@H](CO)C(N)=O
Turning to B1, in experiment [1], the KM of methylation (steady-state kinetics, MTase-Glo) was determined as 6 µM.

B2: peptide 5 (peptide)
peptide: APPAPPRNRPRRSGKNFLDY
HELM: PEPTIDE1{A.P.P.A.P.P.R.N.R.P.R.R.S.G.K.N.F.L.D.[O=C([C@H](Cc1ccc(O)c(O)c1)N[*:1])[*:2]].[am]}$$$$V2.0; N-terminus assumed
SMILES: CC(C)C[C@H](NC(=O)[C@H](Cc1ccccc1)NC(=O)[C@H](CC(N)=O)NC(=O)[C@H](CCCCN)NC(=O)CNC(=O)[C@H](CO)NC(=O)[C@H](CCCNC(=N)N)NC(=O)[C@H](CCCNC(=N)N)NC(=O)[C@@H]1CCCN1C(=O)[C@H](CCCNC(=N)N)NC(=O)[C@H](CC(N)=O)NC(=O)[C@H](CCCNC(=N)N)NC(=O)[C@@H]1CCCN1C(=O)[C@@H]1CCCN1C(=O)[C@H](C)NC(=O)[C@@H]1CCCN1C(=O)[C@@H]1CCCN1C(=O)[C@H](C)N)C(=O)N[C@@H](CC(=O)O)C(=O)N[C@@H](Cc1ccc(O)c(O)c1)C(N)=O
By Kd is commonly meant the constant that tells how readily two partners part at equilibrium. Low values mean tighter binding, high ones weaker binding. In experiment [2], B2 showed a Kd of 22 µM. For the same molecule, in experiment [1], the KM of methylation (steady-state kinetics, MTase-Glo) was 1.5 µM.

B3: peptide 2 (peptide)
peptide: EWAPPLPPRNRPRRSGGSKETYSK
HELM: PEPTIDE1{E.W.A.P.P.L.P.P.R.N.R.P.R.R.S.G.G.S.K.E.T.[O=C([C@H](Cc1ccc(O)c(O)c1)N[*:1])[*:2]].S.K.[am]}$$$$V2.0; N-terminus assumed
SMILES: CC(C)C[C@H](NC(=O)[C@@H]1CCCN1C(=O)[C@@H]1CCCN1C(=O)[C@H](C)NC(=O)[C@H](Cc1c[nH]c2ccccc12)NC(=O)[C@@H](N)CCC(=O)O)C(=O)N1CCC[C@H]1C(=O)N1CCC[C@H]1C(=O)N[C@@H](CCCNC(=N)N)C(=O)N[C@@H](CC(N)=O)C(=O)N[C@@H](CCCNC(=N)N)C(=O)N1CCC[C@H]1C(=O)N[C@@H](CCCNC(=N)N)C(=O)N[C@@H](CCCNC(=N)N)C(=O)N[C@@H](CO)C(=O)NCC(=O)NCC(=O)N[C@@H](CO)C(=O)N[C@@H](CCCCN)C(=O)N[C@@H](CCC(=O)O)C(=O)N[C@H](C(=O)N[C@@H](Cc1ccc(O)c(O)c1)C(=O)N[C@@H](CO)C(=O)N[C@@H](CCCCN)C(N)=O)[C@@H](C)O
For B3, the KM of methylation (steady-state kinetics, MTase-Glo) in experiment [3] turned out to be 132 µM.

B4: peptide 7 (peptide)
peptide: EWAPPLPPRNRPRRSYSK
HELM: PEPTIDE1{E.W.A.P.P.L.P.P.R.N.R.P.R.R.S.[O=C([C@H](Cc1ccc(O)c(O)c1)N[*:1])[*:2]].S.K.[am]}$$$$V2.0; N-terminus assumed
SMILES: CC(C)C[C@H](NC(=O)[C@@H]1CCCN1C(=O)[C@@H]1CCCN1C(=O)[C@H](C)NC(=O)[C@H](Cc1c[nH]c2ccccc12)NC(=O)[C@@H](N)CCC(=O)O)C(=O)N1CCC[C@H]1C(=O)N1CCC[C@H]1C(=O)N[C@@H](CCCNC(=N)N)C(=O)N[C@@H](CC(N)=O)C(=O)N[C@@H](CCCNC(=N)N)C(=O)N1CCC[C@H]1C(=O)N[C@@H](CCCNC(=N)N)C(=O)N[C@@H](CCCNC(=N)N)C(=O)N[C@@H](CO)C(=O)N[C@@H](Cc1ccc(O)c(O)c1)C(=O)N[C@@H](CO)C(=O)N[C@@H](CCCCN)C(N)=O
For B4, the KM of methylation (steady-state kinetics, MTase-Glo) is 400 µM in experiment [4], 130 µM in experiment [1] and 600 nM in experiment [5].

B5: peptide 4 (peptide)
peptide: APPLPPRNRPRRSGKNFLDY
HELM: PEPTIDE1{A.P.P.L.P.P.R.N.R.P.R.R.S.G.K.N.F.L.D.[O=C([C@H](Cc1ccc(O)c(O)c1)N[*:1])[*:2]].[am]}$$$$V2.0; N-terminus assumed
SMILES: CC(C)C[C@H](NC(=O)[C@H](Cc1ccccc1)NC(=O)[C@H](CC(N)=O)NC(=O)[C@H](CCCCN)NC(=O)CNC(=O)[C@H](CO)NC(=O)[C@H](CCCNC(=N)N)NC(=O)[C@H](CCCNC(=N)N)NC(=O)[C@@H]1CCCN1C(=O)[C@H](CCCNC(=N)N)NC(=O)[C@H](CC(N)=O)NC(=O)[C@H](CCCNC(=N)N)NC(=O)[C@@H]1CCCN1C(=O)[C@@H]1CCCN1C(=O)[C@H](CC(C)C)NC(=O)[C@@H]1CCCN1C(=O)[C@@H]1CCCN1C(=O)[C@H](C)N)C(=O)N[C@@H](CC(=O)O)C(=O)N[C@@H](Cc1ccc(O)c(O)c1)C(N)=O
For the molecule B5, the Kd in experiment [2] was 0.69 µM.

B6: peptide 1 (peptide)
peptide: MKEARSAEAKEAGRGSGGSKNFLDY
HELM: PEPTIDE1{M.K.E.A.R.S.A.E.A.K.E.A.G.R.G.S.G.G.S.K.N.F.L.D.[O=C([C@H](Cc1ccc(O)c(O)c1)N[*:1])[*:2]].[am]}$$$$V2.0; N-terminus assumed
SMILES: CSCC[C@H](N)C(=O)N[C@@H](CCCCN)C(=O)N[C@@H](CCC(=O)O)C(=O)N[C@@H](C)C(=O)N[C@@H](CCCNC(=N)N)C(=O)N[C@@H](CO)C(=O)N[C@@H](C)C(=O)N[C@@H](CCC(=O)O)C(=O)N[C@@H](C)C(=O)N[C@@H](CCCCN)C(=O)N[C@@H](CCC(=O)O)C(=O)N[C@@H](C)C(=O)NCC(=O)N[C@@H](CCCNC(=N)N)C(=O)NCC(=O)N[C@@H](CO)C(=O)NCC(=O)NCC(=O)N[C@@H](CO)C(=O)N[C@@H](CCCCN)C(=O)N[C@@H](CC(N)=O)C(=O)N[C@@H](Cc1ccccc1)C(=O)N[C@@H](CC(C)C)C(=O)N[C@@H](CC(=O)O)C(=O)N[C@@H](Cc1ccc(O)c(O)c1)C(N)=O
With B6, the KM of methylation (steady-state kinetics, MTase-Glo) in experiment [3] worked out at 42 µM; in experiment [4] it was 40 µM; in experiment [1], 19 µM; in experiment [6], 30 µM.
